The text below walks through data of US20190062453A1 (Hoffmann-La Roche, published 2019).

Test [1] concerns the target T1, Hu DR5 (ECD)-AcTev-Fc-Avi (human).
T1 construct: dimeric Fc fusion, biotinylated on the Avi tag where immobilised on streptavidin; also called human DR5-Fc; huDR5Fc
As to the kind of experiment: SPR (Biacore), biotinylated human DR5-Fc on a streptavidin chip, bispecific antibody as first analyte.

Test [2] deals with T2, Human FAP ectodomain + poly-lys-tag + his6-tag (human, UniProt Q12884 27-760).
T2 construct: also called recombinant soluble human FAP; hFAP
Briefly: SPR (Biacore), bispecific antibody bound to immobilised human DR5-Fc, recombinant soluble human FAP as second analyte (simultaneous binding). (Surface plasmon resonance follows binding to a sensor surface in real time, without labels.)

The target in test [3] is T3, human FAP on cells (human, UniProt Q12884 1-760).
T3 construct: whole, on cells; also called human FAP expressed on recombinant HEK293 cells; FAP on GM05389 fibroblasts
Briefly: FACS on recombinant HEK293 cells expressing human FAP.

Test [4] addresses T4, Murine FAP ectodomain + poly-lys-tag + his6-tag (murine, UniProt P97321 27-761).
T4 construct: also called recombinant soluble murine FAP
As to the kind of experiment: SPR (Biacore), bispecific antibody bound to immobilised human DR5-Fc, recombinant soluble murine FAP as second analyte (simultaneous binding).

In test [5] the target is T5, murine DR5 ECD-AcTev-hu Fc-Avi (murine, UniProt Q9QZM4 53-153).
T5 construct: range 53-153; also called mouse DR5
As to the kind of experiment: SPR, biotinylated DR5 on SA chip.

For test [6], the target named is T6, Recombinant human DcR1-Fc (human, UniProt O14798 26-221).
T6 construct: bought; also called huDcR1Fc; human DcR1 (TNFRSF10C); Fc part of the bought chimera not given
T6 sequence (looked up): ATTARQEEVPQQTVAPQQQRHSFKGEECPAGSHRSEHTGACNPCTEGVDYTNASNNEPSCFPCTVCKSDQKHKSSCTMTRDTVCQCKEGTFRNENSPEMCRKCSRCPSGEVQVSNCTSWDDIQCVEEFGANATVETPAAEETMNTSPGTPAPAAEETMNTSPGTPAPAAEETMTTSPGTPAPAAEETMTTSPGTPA
As to the kind of experiment: SPR, receptor-Fc on CM5 chip.

The target of test [7] is T7, Recombinant human OPG-Fc (human, UniProt O00300 22-194).
T7 construct: bought; also called rhuOPGFc; human Osteoprotegerin; Fc part of the bought chimera not given
T7 sequence (looked up): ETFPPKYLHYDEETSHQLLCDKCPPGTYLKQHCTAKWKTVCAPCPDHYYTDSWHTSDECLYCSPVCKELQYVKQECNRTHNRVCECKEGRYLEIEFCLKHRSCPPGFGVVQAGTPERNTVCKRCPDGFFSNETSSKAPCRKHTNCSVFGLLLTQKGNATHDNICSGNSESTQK
Briefly: SPR, receptor-Fc on CM5 chip.

The target in test [8] is T8, Recombinant human DcR2-Fc (human, UniProt Q9UBN6 56-211).
T8 construct: bought for the phage antibodies; also called huDcR2Fc; human DcR2 (TNFRSF10D); not shown: Fc part of the chimera
T8 sequence (looked up): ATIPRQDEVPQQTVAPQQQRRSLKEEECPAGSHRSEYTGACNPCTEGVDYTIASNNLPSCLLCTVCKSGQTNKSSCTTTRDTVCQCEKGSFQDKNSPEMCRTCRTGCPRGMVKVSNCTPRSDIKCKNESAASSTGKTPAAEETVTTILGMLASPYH
As to the kind of experiment: SPR, receptor-Fc on CM5 chip.

Test [9] deals with T9, Recombinant human DR4-Fc (human, UniProt O00220 109-239).
T9 construct: bought; also called huDR4Fc; human DR4 (TNFRSF10A); Fc part of the bought chimera not given
As to the kind of experiment: SPR, receptor-Fc on CM5 chip.

Test [10] deals with T2, Human FAP ectodomain + poly-lys-tag + …. Briefly: SPR (Biacore), bispecific antibody bound to immobilised human DR5-Fc, recombinant human FAP as second analyte (simultaneous binding).
Test [11] deals with T10, cynomolgus DR5 in the TagLite assay (cynomolgus).
T10 construct: also called cy DR5 (TagLite)
Briefly: TagLite TR-FRET on cells.

For test [12], the target named is murine FAP on recombinant 3T3 cells (murine, UniProt P97321 1-761). As to the kind of experiment: cell-based or functional assay.
In test [13] the target is T2, Human FAP ectodomain + poly-lys-tag + …. As to the kind of experiment: SPR, bispecific captured by anti human IgG (Fc), human FAP 5 µg/ml.
The target of test [14] is T4, Murine FAP ectodomain + poly-lys-tag + …. Briefly: SPR (Biacore), bispecific antibody bound to immobilised human DR5-Fc, recombinant soluble murine FAP as second analyte (simultaneous binding). The source holds these as a separate data set.
Test [15] has as its target T2, Human FAP ectodomain + poly-lys-tag + …. Briefly: SPR (Biacore), bispecific antibody bound to immobilised human DR5-Fc, recombinant soluble human FAP as second analyte (simultaneous binding). The source holds these as a separate data set.
For test [16], the target named is T1, Hu DR5 (ECD)-AcTev-Fc-Avi. Briefly: SPR (Biacore), biotinylated human DR5-Fc on a streptavidin chip, bispecific antibody as first analyte. The source holds these as a separate data set.
In test [17] the target is T11, human DR5 (recombinant, fusion format not stated for the assay) (human, UniProt O14763 56-207).
T11 construct: all antigen constructs carry ECD aa 56-207; also called hu DR5; huDR5
As to the kind of experiment: SPR (Biacore), 2+2 over immobilised DR5 ECD.

Test [18] concerns the target T12, Cynom. DR5 (ECD)-AcTev-Fc-Avi (cynomolgus).
T12 construct: also called cynomolgus DR5; cy DR5
As to the kind of experiment: SPR (Biacore), affinity, 2+2 captured and DR5 injected.

For test [19], the target named is T11, human DR5 (recombinant, fusion format …). The test is described as above.

Where a chain is given by its changes, count along the chain named. In names and notes the source's numbering stands. Where two headings read alike, the source gives them in different places.

B1: Drozitumab-X-FAP_B (2 + 2) (bispecific antibody, human IgG1, lambda)
heavy: not shown
chain: not shown
light: SELTQDPAVSVALGQTVRITCSGDSLRSYYASWYQQKPGQAPVLVIYGANNRPSGIPDRFSGSSSGNTASLTITGAQAEDEADYYCNSADSSGNHVVFGGGTKLTVLGQPKAAPSVTLFPPSSEELQANKATLVCLISDFYPGAVTVAWKADSSPVKAGVETTTPSKQSNNKYAASSYLSLTPEQWKSHRSYSCQVTHEGSTVEKTVAPTECS
notes: 4G8 VL-CH1 fused to the C-terminus of the Drozitumab heavy chain; also called GA803_A01_E02A_015
As for B1, the binding result in test [1], in [2], in test [3] and in test [4] was “binds” in each case.

B2: 4G8_scFab_HC (bispecific antibody, human IgG1, kappa, lambda)
heavy: not shown
light: B1 light
notes: also called GA803_A01_B02A_001; Drozitumab-scFab-FAP
With B2, the binding result in test [3] is “binds”.

B3: 4G8 IgG (antibody, V domains shown)
VH: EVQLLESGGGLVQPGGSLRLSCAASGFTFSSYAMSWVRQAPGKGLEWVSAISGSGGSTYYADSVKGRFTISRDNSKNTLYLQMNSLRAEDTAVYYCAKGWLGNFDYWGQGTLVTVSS
VL: EIVLTQSPGTLSLSPGERATLSCRASQSVSRSYLAWYQQKPGQAPRLLIIGASTRATGIPDRFSGSGSGTDFTLTISRLEPEDFAVYYCQQGQVIPPTFGQGTKVEIK
notes: also called FAP (4G8) IgG molecule; parental 4G8 IgG
Take B3: in [3], the binding result is given as “binds”.

B4: 22E9 (antibody, IgG1, V domains shown)
VH: not shown
VL: B3 VL with R31S, I50Y, T54S, Q93S, V94N, I95Q, P97V
notes: hu IgG1
For B4, the binding result in [5] was “no binding (tested: 500, 100 and 25 nM)”; in [6], “no binding (tested: 500, 100 and 25 nM)”; in test [7], “no binding (tested: 500, 100 and 25 nM)”; in test [8], “no binding (tested: 500, 100 and 25 nM)”; in test [9], “no binding (tested: 500, 100 and 25 nM)”.

B5: 21H3 (antibody, IgG1, V domains shown)
VH: not shown
VL: B3 VL with R31S, I50Y, T54S, Q93S, V94Q, I95P, P97I
notes: hu IgG1
Turning to B5, the binding result in [5] is “no binding (tested: 500, 100 and 25 nM)”; in [6] it was “no binding (tested: 500, 100 and 25 nM)”; in test [7] it was “no binding (tested: 500, 100 and 25 nM)”; in test [8], “no binding (tested: 500, 100 and 25 nM)”; in test [9], “no binding (tested: 500, 100 and 25 nM)”.

B6: DR5(5E11)-28H1 VHCL 2 + 2 (bispecific antibody, human IgG1, kappa)
heavy: not shown
light: EIVLTQSPGTLSLSPGERATLSCRASQSVSSSYLAWYQQKPGQAPRLLIYGASSRATGIPDRFSGSGSGTDFTLTISRLEPEDFAVYYCQQGTTHPITFGQGTKVEIKRTVAAPSVFIFPPSDEQLKSGTASVVCLLNNFYPREAKVQWKVDNALQSGNSQESVTEQDSKDSTYSLSSTLTLSKADYEKHKVYACEVTHQGLSSPVTKSFNRGEC
chain: EIVLTQSPGTLSLSPGERATLSCRASQSVSRSYLAWYQQKPGQAPRLLIIGASTRATGIPDRFSGSGSGTDFTLTISRLEPEDFAVYYCQQGQVIPPTFGQGTKVEIKSSASTKGPSVFPLAPSSKSTSGGTAALGCLVKDYFPEPVTVSWNSGALTSGVHTFPAVLQSSGLYSLSSVVTVPSSSLGTQTYICNVNHKPSNTKVDKKVEPKSCD
notes: also called DR5TAA-0030
Turning to B6, the binding result in test [10] is listed as “binds”. This molecule yielded an Avidity in test [11] of 0.4 nM. In addition, the “Cell Death Detection ELISA, DLD-1 cells with 3T3 cells expressing murine FAP” value (“Cell Death Detection ELISA, DLD-1 cells” for short) in test [12] amounted to 10 fold.

B7: DR5(5E11)-28H1 VHCL 2 + 2 P329GLALA (bispecific antibody, human IgG1, kappa, L234A L235A)
heavy: not shown
light: B6 light
chain: B6 chain
notes: C-terminal lysine removed, L234A L235A P329G in Fc; also called DR5TAA-0057; format A
On to B7, for which the “FAP [RU max]” value in test [13] was determined as 40.8 RU. The same molecule came in with an Avidity in [11] of 0.6 nM. Also, in [12], the “Cell Death Detection ELISA, DLD-1 cells” value was found to be 10 fold.

B8: Drozitumab-X-FAP_A (2 + 2) (bispecific antibody, human IgG1, lambda)
heavy: not shown
chain: B6 chain
light: B1 light
notes: 4G8 VH-CL fused to the C-terminus of the Drozitumab heavy chain; also called GA803_A01_E02A_014
Regarding B8, the binding result in test [14], in [15], in test [3] and in test [16] was “binds” in each case.

B9: DR5TAA-0078 (bispecific antibody)
heavy: not shown
chain: B6 chain with R31S, I50Y, T54S, Q93T, V94T, I95H, P97I
light: B6 light with S31R, Y50I, S54T, T93Q, T94V, H95I, I97P
notes: also called format D
With B9, in test [13], the “FAP [RU max]” value amounted to 38.4 RU.

B10: DR5TAA-0081 (bispecific antibody, human IgG1, kappa, L234A L235A)
heavy: not shown
light: B6 light
chain: EVQLLESGGGLVQPGGSLRLSCAASGFTFSSHAMSWVRQAPGKGLEWVSAIWASGEQYYADSVKGRFTISRDNSKNTLYLQMNSLRAEDTAVYYCAKGWLGNFDYWGQGTLVTVSSASVAAPSVFIFPPSDEQLKSGTASVVCLLNNFYPREAKVQWKVDNALQSGNSQESVTEQDSKDSTYSLSSTLTLSKADYEKHKVYACEVTHQGLSSPVTKSFNRGEC
notes: also called format F
On to B10, for which, in test [13], the “FAP [RU max]” value was determined as 7.2 RU.

B11: DR5TAA-0077 (bispecific antibody, human IgG1, kappa)
heavy: not shown
chain: not shown
light: B6 light with S31R, Y50I, S54T, T93Q, T94V, H95I, I97P
notes: also called format C
Consider B11, for which, in [13], the “FAP [RU max]” value turned out to be 41.9 RU.

B12: DR5TAA-0035 (bispecific antibody, human IgG1, kappa)
heavy: not shown
light: ADIVMTQTASPVSAAVGGTVTINCQASQSISSSYVSWYQQKPGQPPKLLIYKASTLASGVPSRFSGSGSGTQLSLTIRGVQCDDAATYYCLYGYSDVSSSEYVFGGGTEVVVRRTVAAPSVFIFPPSDEQLKSGTASVVCLLNNFYPREAKVQWKVDNALQSGNSQESVTEQDSKDSTYSLSSTLTLSKADYEKHKVYACEVTHQGLSSPVTKSFNRGEC
chain: B6 chain
notes: also called 0016-28H1
For B12, the figures for the Avidity in test [17] and in [11] were 0.08 nM and 0.7 nM, respectively. Besides, the Kd (in general, a measure of binding affinity in units of concentration) in test [18] amounted to 2 nM; in test [19], 5.1 nM. The binding result in test [10] was “binds”. Further, in [12], the “Cell Death Detection ELISA, DLD-1 cells” value came out at 10 fold.
